Laboratory results as given in IntAct's records for PubMed 17666011.

What was measured:
[1] = biological target: T1, anm12_arath PRMT12 (UniProt O82210)
T1 sequence: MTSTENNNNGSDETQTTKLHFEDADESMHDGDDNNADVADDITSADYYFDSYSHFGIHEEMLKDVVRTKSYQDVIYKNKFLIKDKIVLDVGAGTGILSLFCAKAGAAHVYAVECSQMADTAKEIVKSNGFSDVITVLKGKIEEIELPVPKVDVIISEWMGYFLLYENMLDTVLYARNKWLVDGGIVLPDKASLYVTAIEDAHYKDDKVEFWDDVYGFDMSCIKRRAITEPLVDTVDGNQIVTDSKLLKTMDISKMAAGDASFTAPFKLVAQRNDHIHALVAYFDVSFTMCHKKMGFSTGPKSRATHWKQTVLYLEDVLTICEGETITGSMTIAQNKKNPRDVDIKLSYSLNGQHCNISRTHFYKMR

[2] = biological target: T2, anm11_arath PRMT11 (UniProt Q9SU94)
T2 sequence: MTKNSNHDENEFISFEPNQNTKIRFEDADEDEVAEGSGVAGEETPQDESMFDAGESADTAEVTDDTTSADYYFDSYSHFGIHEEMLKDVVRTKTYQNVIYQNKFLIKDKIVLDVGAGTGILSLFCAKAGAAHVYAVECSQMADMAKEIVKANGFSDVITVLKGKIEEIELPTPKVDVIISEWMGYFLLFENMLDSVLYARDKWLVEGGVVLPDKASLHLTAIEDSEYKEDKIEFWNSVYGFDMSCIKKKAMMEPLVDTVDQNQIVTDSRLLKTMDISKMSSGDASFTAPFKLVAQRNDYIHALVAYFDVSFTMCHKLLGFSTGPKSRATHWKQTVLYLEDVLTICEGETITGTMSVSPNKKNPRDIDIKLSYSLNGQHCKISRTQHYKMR

Histone H4 (Homo sapiens) (from UniProt P62805) R20K
effect of a mutation on the interaction [1]: disrupting interaction | effect of a mutation on the interaction [2]: disrupting interaction
